Reference: US7354734B2, “Fungal proteins and nucleic acids encoding same” (priority 2003, dated 2008)
“Also recorded” adds a separate entry of the source.

Experiments:
[1] = type: biochemical
[2] = type: biochemical; details: substrate Lys(Abz)Pro-PropNA 5 mM, 37° C., 60 min
[3] = system: gliadin 33mer (fragment 57-89 of gliadin MM1); assay: Digestion of gliadin 33mer (RP-HPLC, ESI-MS); type: biochemical, wheat; details: 37° C.

B1: pkLAP: commercially available microsomal LAP from porcine kidney (MEROPS>M1 family), Sigma (protein, UniProt P15145 2-963, looked up)
Aminopeptidase N: AKGFYISKALGILGILLGVAAVATIIALSVVYAQEKNKNAEHVPQAPTSPTITTTAAITLDQSKPWNRYRLPTTLLPDSYNVTLRPYLTPNADGLYIFKGKSIVRLLCQEPTDVIIIHSKKLNYTTQGHMVVLRGVGDSQVPEIDRTELVELTEYLVVHLKGSLQPGHMYEMESEFQGELADDLAGFYRSEYMEGNVKKVLATTQMQSTDARKSFPCFDEPAMKATFNITLIHPNNLTALSNMPPKGSSTPLAEDPNWSVTEFETTPVMSTYLLAYIVSEFQSVNETAQNGVLIRIWARPNAIAEGHGMYALNVTGPILNFFANHYNTSYPLPKSDQIALPDFNAGAMENWGLVTYRENALLFDPQSSSISNKERVVTVIAHELAHQWFGNLVTLAWWNDLWLNEGFASYVEYLGADHAEPTWNLKDLIVPGDVYRVMAVDALASSHPLTTPAEEVNTPAQISEMFDSISYSKGASVIRMLSNFLTEDLFKEGLASYLHAFAYQNTTYLDLWEHLQKAVDAQTSIRLPDTVRAIMDRWTLQMGFPVITVDTKTGNISQKHFLLDSESNVTRSSAFDYLWIVPISSIKNGVMQDHYWLRDVSQAQNDLFKTASDDWVLLNVNVTGYFQVNYDEDNWRMIQHQLQTNLSVIPVINRAQVIYDSFNLATAHMVPVTLALDNTLFLNGEKEYMPWQAALSSLSYFSLMFDRSEVYGPMKKYLRKQVEPLFQHFETLTKNWTERPENLMDQYSEINAISTACSNGLPQCENLAKTLFDQWMSDPENNPIHPNLRSTIYCNAIAQGGQDQWDFAWGQLQQAQLVNEADKLRSALACSNEVWLLNRYLGYTLNPDLIRKQDATSTINSIASNVIGQPLAWDFVQSNWKKLFQDYGGGSFSFSNLIQGVTRRFSSEFELQQLEQFKKNNMDVGFGSGTRALEQALEKTKANIKWVKENKEVVLNWFIEHS
- hydrolytic activity toward Ala-AMC ([1]; compared to Leu-AMC): extremely high efficiency
- hydrolytic activity toward Arg-AMC ([1]; compared to Leu-AMC): extremely high efficiency
- hydrolytic activity toward Ala-AMC in comparison to Leu-MCA used as a standard ([1]; substrate Ala-AMC 5 mM, 37° C., 60 min): 584.7%
- hydrolytic activity toward Arg-AMC in comparison to Leu-MCA used as a standard ([1]; substrate Arg-AMC 5 mM, 37° C., 60 min): 174.8%
- hydrolytic activity toward Asn-AMC in comparison to Leu-MCA used as a standard ([1]; substrate Asn-AMC 5 mM, 37° C., 60 min): 33.9%
- hydrolytic activity toward Asp-AMC in comparison to Leu-MCA used as a standard ([1]; substrate Asp-AMC 5 mM, 37° C., 60 min): 0.9%
- hydrolytic activity toward Cys-AMC in comparison to Leu-MCA used as a standard ([1]; substrate Cys-AMC 5 mM, 37° C., 60 min): 35.5%
- hydrolytic activity toward Gln-AMC in comparison to Leu-MCA used as a standard ([1]; substrate Gln-AMC 5 mM, 37° C., 60 min): 50.7%
- hydrolytic activity toward Glu-AMC in comparison to Leu-MCA used as a standard ([1]; substrate Glu-AMC 5 mM, 37° C., 60 min): 4.7%
- hydrolytic activity toward Gly-AMC in comparison to Leu-MCA used as a standard ([1]; substrate Gly-AMC 5 mM, 37° C., 60 min): 74.8%
- hydrolytic activity toward Gly-Pro-AMC in comparison to Leu-MCA used as a standard ([1]; substrate Gly-Pro-AMC 5 mM, 37° C., 60 min): 16.7%
- hydrolytic activity toward His-AMC in comparison to Leu-MCA used as a standard ([1]; substrate His-AMC 5 mM, 37° C., 60 min): 17.6%
- hydrolytic activity toward Hyp-AMC in comparison to Leu-MCA used as a standard ([1]; substrate Hyp-AMC 5 mM, 37° C., 60 min): 1.7%
- hydrolytic activity toward Ile-AMC in comparison to Leu-MCA used as a standard ([1]; substrate Ile-AMC 5 mM, 37° C., 60 min): 6.3%
- hydrolysis of Leu-AMC ([1]; substrate Leu-AMC): efficiently hydrolyzed; also recorded: common preference
- hydrolytic activity toward Leu-AMC in comparison to Leu-MCA used as a standard ([1]; substrate Leu-AMC 5 mM, 37° C., 60 min): 100.0%
- hydrolytic activity toward Lys-AMC in comparison to Leu-MCA used as a standard ([1]; substrate Lys-AMC 5 mM, 37° C., 60 min): 70.1%
- hydrolytic activity toward Met-AMC in comparison to Leu-MCA used as a standard ([1]; substrate Met-AMC 5 mM, 37° C., 60 min): 46.1%
- hydrolytic activity toward Phe-AMC in comparison to Leu-MCA used as a standard ([1]; substrate Phe-AMC 5 mM, 37° C., 60 min): 184.4%
- hydrolytic activity toward Pro-AMC in comparison to Leu-MCA used as a standard ([1]; substrate Pro-AMC 5 mM, 37° C., 60 min): 7.9%
- hydrolytic activity toward Pyr-AMC in comparison to Leu-MCA used as a standard ([1]; substrate Pyr-AMC 5 mM, 37° C., 60 min): 0.0%
- hydrolytic activity toward Ser-AMC in comparison to Leu-MCA used as a standard ([1]; substrate Ser-AMC 5 mM, 37° C., 60 min): 24.6%
- hydrolytic activity toward Thr-AMC in comparison to Leu-MCA used as a standard ([1]; substrate Thr-AMC 5 mM, 37° C., 60 min): 4.4%
- hydrolytic activity toward Val-AMC in comparison to Leu-MCA used as a standard ([1]; substrate Val-AMC 5 mM, 37° C., 60 min): 4.0%
- hydrolytic activity toward Lys(Abz)Pro-PropNA in comparison to Leu-MCA used as a standard [2]: 0.0%
- digestion of gliadin 33mer, enzyme alone [3]: partial deletion of N-terminal Leu and C-terminal Phe
- digestion of gliadin 33mer, mixed with ruDPPIV ([3]; enzyme plus ruDPPIV (DPPIV)): does not modify the profile
